B1: CV3-25 Fab (Fab, V domains shown)
VH: QVQLVESGAEVKKPGESLKISCKGSGYTFTRYWIGWVRQMPGKGLEWMGIIYPGDSDTRYSPSFQGHVTISADKSISTAYLQWNSLKASDTAMYYCARLPQYCSNGVCQRWFDPWGQGTLVTVSS
VL: EIVLTQSPSSVSASVGDRVTITCRASQGISSWLAWYQQKPGKAPKLLIYAASSLQSGVPSRFSGSGSGTDFTLTISSLQPEDFATYYCQQGNSFPYTFGQGTNLEIK
notes: also called monovalent Fab
B2: B6 mAb (antibody, V domains shown)
VH: EVQLQQSGPVLVKPGASVRMSCKASGYTITDYYLNWVKQSHGKSLEWLGVLNPYSGGSLYSQTFKGKATLTVDRSSSTAYLELNSLTSEDSAVYYCARQLGRGNGLDYWGQGTSVTVSS
VL: NIMMTQSPSSLAVSAGEKVTMSCKSSQSVLHSSDQKNYLAWYQQKPGQSPKLLIYWASTRESGVPDRFTGSGSGTDFTLTISSVQAEDLAVYFCHQYLSSYTFGGGTKLEIK
notes: source: 293 cells, purified using protein A resin

Target: SARS-CoV-2 S6P (SARS-CoV-2, Wuhan-Hu-1 (assumed), UniProt P0DTC2, stabilised, biotinylated (site not stated))
Assay: BLI
Conditions: both partners purified

| Binder | Kd | binding result |
| --- | --- | --- |
| B1 | ~0.6 nM | – |
| B2 | – | binds |

From PMC9001700 (Communications Biology, 2022)
